Experimental data reported in the supplement of paper PMC11246515.
± gives the standard deviation of the averaged measurements.

Assay: total protein half-life in vivo (active degradation + dilution); higher = more stable protein
[1] = E. coli NCM3722 delta-clpP delta-lon delta-hslV, growth: N-lim chemostat, doubling time 6 h
[2] = E. coli NCM3722 delta-hslV, growth: N-lim chemostat, doubling time 6 h
[3] = E. coli NCM3722 delta-lon, growth: N-lim chemostat, doubling time 6 h
[4] = E. coli NCM3722 delta-smpB, growth: N-lim chemostat, doubling time 6 h
[5] = wild type E. coli NCM3722, growth: C-lim chemostat, doubling time 3 h
[6] = wild type E. coli NCM3722, growth: C-lim chemostat, doubling time 6 h
[7] = wild type E. coli NCM3722, growth: C-lim chemostat, doubling time 12 h
[8] = wild type E. coli NCM3722, growth: N-lim chemostat, doubling time 6 h
[9] = wild type E. coli NCM3722, growth: N-lim chemostat, doubling time 12 h
[10] = wild type E. coli NCM3722, growth: P-lim chemostat, doubling time 6 h
[11] = wild type E. coli NCM3722, growth: P-lim chemostat, doubling time 12 h
[12] = E. coli NCM3722 delta-clpP, growth: N-lim chemostat, doubling time 6 h

| Sequence | total protein half-life in vivo [1] [h] | total protein half-life in vivo [2] [h] | total protein half-life in vivo [3] [h] | total protein half-life in vivo [4] [h] | total protein half-life in vivo [5] [h] | total protein half-life in vivo [6] [h] | total protein half-life in vivo [7] [h] | total protein half-life in vivo [8] [h] | total protein half-life in vivo [9] [h] | total protein half-life in vivo [10] [h] | total protein half-life in vivo [11] [h] | total protein half-life in vivo [12] [h] |
| --- | --- | --- | --- | --- | --- | --- | --- | --- | --- | --- | --- | --- |
| MMKMRWLSAAVMLTLYTSSSWAFSIDDVAKQAQSLAGKGYETPKSNLPSVFRDMKYADYQQIQFNHDKAYWNNLKTPFKLEFYHQGMYFDTPVKINEVTATAVKRIKYSPDYFTFGDVQHDKDTVKDLGFAGFKVLYPINSKDKNDEIVSMLGASYFRVIGAGQVYGLSARGLAIDTALPSGEEFPRFKEFWIERPKPTDKRLTIYALLDSPRATGAYKFVVMPGRDTVVDVQSKIYLRDKVGKLGVAPLTSMFLFGPNQPSPANNYRPELHDSNGLSIHAGNGEWIWRPLNNPKHLAVSSFSMENPQGFGLLQRGRDFSRFEDLDDRYDLRPSAWVTPKGEWGKGSVELVEIPTNDETNDNIVAYWTPDQLPEPGKEMNFKYTITFSRDEDKLHAPDNAWVQQTRRSTGDVKQSNLIRQPDGTIAFVVDFTGAEMKKLPEDTPVTAQTSIGDNGEIVESTVRYNPVTKGWRLVMRVKVKDAKKTTEMRAALVNADQTLSETWSYQLPANE | 6.373 ± 0.046 | 6.94 ± 1 | 6.34 ± 0.17 | 5.91 ± 0.29 | 3.25 ± 0.11 | 6.12 ± 0.11 | 12.4 ± 0.37 | 6.43 ± 0.094 | 12.6 ± 0.2 | 6.37 ± 0.39 | 12.9 ± 0.14 | – |
| MMKNILAIQSHVVYGHAGNSAAEFPMRRLGANVWPLNTVQFSNHTQYGKWTGCVMPPSHLTEIVQGIAAIDKLHTCDAVLSGYLGSAEQGEHILGIVRQVKAANPQAKYFCDPVMGHPEKGCIVAPGVAEFHVRHGLPASDIIAPNLVELEILCEHAVNNVEEAVLAARELIAQGPQIVLVKHLARAGYSRDRFEMLLVTADEAWHISRPLVDFGMRQPVGVGDVTSGLLLVKLLQGATLQEALEHVTAAVYEIMVTTKAMQEYELQVVAAQDRIAKPEHYFSATKL | – | 2.01 ± 0.45 | 1.63 ± 0.039 | 1.73 | 2.89 ± 0.033 | 5 ± 1.8 | 5.86 ± 0.53 | 1.832 ± 0.0067 | 2.45 | 4.49 ± 0.085 | 8.09 ± 0.6 | – |
| MMKRNILAVIVPALLVAGTANAAEIYNKDGNKVDLYGKAVGLHYFSKGNGENSYGGNGDMTYARLGFKGETQINSDLTGYGQWEYNFQGNNSEGADAQTGNKTRLAFAGLKYADVGSFDYGRNYGVVYDALGYTDMLPEFGGDTAYSDDFFVGRVGGVATYRNSNFFGLVDGLNFAVQYLGKNERDTARRSNGDGVGGSISYEYEGFGIVGAYGAADRTNLQEAQPLGNGKKAEQWATGLKYDANNIYLAANYGETRNATPITNKFTNTSGFANKTQDVLLVAQYQFDFGLRPSIAYTKSKAKDVEGIGDVDLVNYFEVGATYYFNKNMSTYVDYIINQIDSDNKLGVGSDDTVAVGIVYQF | 5.54 ± 0.65 | 5.98 ± 0.073 | 6.91 ± 0.67 | 5.865 ± 0.041 | 3.19 ± 0.046 | 6.83 ± 0.66 | 11.12 ± 0.049 | 5.95 ± 0.26 | 10.9 ± 0.82 | 6.15 ± 0.23 | – | 6.23 ± 0.86 |
| MMKTMRIAAIPGDGIGKEVLPEGIRVLQAAAERWGFALSFEQMEWASCEYYSHHGKMMPDDWHEQLSRFDAIYFGAVGWPDTVPDHISLWGSLLKFRREFDQYVNLRPVRLFPGVPCPLAGKQPGDIDFYVVRENTEGEYSSLGGRVNEGTEHEVVIQESVFTRRGVDRILRYAFELAQSRPRKTLTSATKSNGLAISMPYWDERVEAMAENYPEIRWDKQHIDILCARFVMQPERFDVVVASNLFGDILSDLGPACTGTIGIAPSANLNPERTFPSLFEPVHGSAPDIYGKNIANPIATIWAGAMMLDFLGNGDERFQQAHNGILAAIEEVIAHGPKTPDMKGNATTPQVADAICKIILR | 4.1 ± 1.1 | 2.66 ± 0.067 | 4.83 ± 2.4 | 2.68 ± 0.02 | 2.6 ± 0.4 | 4.42 ± 0.51 | 7.5 ± 1.2 | 2.6337 ± 0.002 | 3.89 ± 0.11 | 4.47 ± 0.67 | 11.1 ± 0.13 | 2.64 ± 0.46 |
| MMKTVKHLLCCAIAASALISTGVHAASWKDALSSAASELGNQNSTTQEGGWSLASLTNLLSSGNQALSADNMNNAAGILQYCAKQKLASVTDAENIKNQVLEKLGLNSEEQKEDTNYLDGIQGLLKTKDGQQLNLDNIGTTPLAEKVKTKACDLVLKQGLNFIS | 2.77 ± 0.018 | 2.68 | 3.02 ± 0.12 | 2.56 ± 0.057 | 2.22 ± 0.24 | 3.873 ± 0.035 | 3.5 | 2.1 | – | 3.43 | 3.72 ± 0.56 | 2.37 |
| MMMGEVQSLPSAGLHPALQDALTLALAARPQEKAPGRYELQGDNIFMNVMTFNTQSPVEKKAELHEQYIDIQLLLNGEERILFGMAGTARQCEEFHHEDDYQLCSTIDNEQAIILKPGMFAVFMPGEPHKPGCVVGEPGEIKKVVVKVKADLMA | 5.11 ± 0.56 | 4.7878 ± 0.0042 | 5.28 | 4.8 ± 0.44 | 2.61 ± 0.37 | 5.51 ± 0.72 | 9.27 ± 2.2 | – | 7.67 | 4.2 ± 0.51 | 10.3 ± 0.17 | 5.65 |
